# In publication PMC12363175 (2025):
# Residue numbers refer to the chain shown, from its start.
# B1: raccoon dog ACE2 ectodomain fused with mFc (Fc fusion)
# chain: QSTEDLVNTFLEKFNYEAEELSYQSSLASWNYNTNITDENLQKMNNAGAKWSAFYEEQSKLAKTYPLEEIQDSTVKRQLRALQHSGSSVLSADKNQRLNTILNSMSTIYSTGKACNPSNPQECLLLEPGLDDIMENSKDYNERLWAWEGWRSEVGKQLRPLYEEYVALKNEMARANNYEDYGDYWRGDYEEEWENGYNYSRNQLIDDVEHTFTQIMPLYQHLHAYVRTKLMDTYPSYISPTGCLPAHLLGDMWGRFWTNLYPLTVPFGQKPNIDVTNAMVNQSWDARKIFKEAEKFFVSVGLPNMTQGFWENSMLTEPSDSWKVVCHPTAWDLGRGDFRIKMCTKVTMDDFLTAHHEMGHIQYDMAYAAQPFLLRNGANEGFHEAVGEIMSLSAATPNHLKNIGLLPPSFFEDSETEINFLLKQALTIVGTLPFTYMLEKWRWMVFKGEIPKDQWMKTWWEMKRNIVGVVEPVPHDETYCDPASLFHVANDYSFIRYYTRTIYQFQFQEALCQIAKHEGPLHKCDISNSSEAGQKLLEMLKLGKSKPWTYALEIVVGAKNMDVRPLLNYFEPLFTWLKEQNRNSFVGWNTDWSPYADQSIKVRISLKSALGEKAYEWNNNEMYLFRSSIAYAMRQYFSEVKNQTIPFVEDNVWVSDLKPRISFNFFVTSPGNVSDIIPRTEVEEAIRMYRSRINDVFRLDDNSLEFLGIQPTLGPPYEPPVT
# B2: dog ACE2 ectodomain fused with mFc (Fc fusion)
# chain: B1 chain with N8K, T34I, L41V, G308E, W322R, R335K
# B3: rabbit ACE2 ectodomain fused with mFc (Fc fusion)
# chain: QSTIEELAKTFLEKFNQEAEDLSYQSALASWDYNTNITEENVQKMNDAEAKWSAFYEEQSKLAKTYPSQEVQNLTVKRQLQALQQSGSSALSADKSKQLNTILSTMSTIYSTGKVCNQSNPQECFLLEPGLDEIMAKSTDYNERLWAWEGWRSVVGKQLRPLYEEYVVLKNEMARANNYEDYGDYWRADYEAEGADGYDYSRSQLIDDVERTFSEIKPLYEQLHAFVRTKLMDAYPSRISPTGCLPAHLLGDMWGRFWTNLYSLTVPFGQKPNIDVTDTMVNQGWDAERIFKEAEKFFVSVGLPSMTQGFWENSMLTEPGDGRKVVCHPTAWDLGKGDFRIKMCTKVTMDNFLTAHHEMGHIQYDMAYATQPFLLRNGANEGFHEAVGEIMSLSAATPEHLKSIGLLPYDFHEDNETEINFLLKQALTIVGTLPFTYMLEKWRWMVFKGEIPKEQWMQKWWEMKREIVGVVEPMPHDETYCDPAALFHVANDYSFIRYYTRTIYQFQFQEALCQAAQHEGPLHKCDISNSTEAGQKLLNMLRLGRSEPWTLALENVVGAKNMDVRPLLNYFEPLFTWLKEQNRNSFVGWSTEWTPYADQSIKVRISLKTALGDQAYEWNDSEMYLFRSSVAYAMRKYFSEVKNQTILFGEEDVRVSDLKPRISFNFFVTAPNNVNDIIPRNEVEEAISMSRSRINDIFRLDDNSLEFVGIQPTLEPPYESPVP
# B4: pig ACE2 ectodomain fused with mFc (Fc fusion)
# chain: QSTTEELAKTFLEKFNLEAEDLAYQSSLASWNYNTNITDENIQKMNDARAKWSAFYEEQSRIAKTYPLDEIQTLILKRQLQALQQSGTSGLSADKSKRLNTILNTMSTIYSSGKVLDPNNPQECLVLEPGLDEIMENSKDYSRRLWAWESWRAEVGKQLRPLYEEYVVLENEMARANNYEDYGDYWRGDYEVTGTGDYDYSRNQLMEDVERTFAEIKPLYEHLHAYVRAKLMDAYPSRISPTGCLPAHLLGDMWGRFWTNLYPLTVPFGEKPSIDVTEAMVNQSWDAIRIFEEAEKFFVSIGLPNMTQGFWNNSMLTEPGDGRKVVCHPTAWDLGKGDFRIKMCTKVTMDDFLTAHHEMGHIQYDMAYAIQPYLLRNGANEGFHEAVGEIMSLSAATPHYLKALGLLPPDFYEDSETEINFLLKQALTIVGTLPFTYMLEKWRWMVFKGEIPKEQWMQKWWEMKREIVGVVEPLPHDETYCDPACLFHVAEDYSFIRYYTRTIYQFQFHEALCRTAKHEGPLYKCDISNSTEAGQKLLQMLSLGKSEPWTLALENIVGVKTMDVKPLLSYFEPLLTWLKAQNGNSSVGWNTDWTPYADQSIKVRISLKSALGKEAYEWNDNEMYLFRSSIAYAMRNYFSSAKNETIPFGAEDVWVSDLKPRISFNFFVTSPANMSDIIPRSDVEKAISMSRSRINDAFRLDDNTLEFLGIQPTLGPPDEPP
# B5: fox ACE2 ectodomain fused with mFc (Fc fusion)
# chain: B1 chain with N31D, T37S, L41V, W322R, R335K, Q635R, N642K, E684K, S691G
# B6: goat ACE2 ectodomain fused with mFc (Fc fusion)
# chain: QSTTEEQAKTFLEKFNHEAEDLSYQSSLASWNYNTNITDENVQKMNEARAKWSAFYEEQSRMARTYSLEEIQNLTLKRQLKALQHSGTSVLSAEKSKRLNTILNKMSTIYSTGKVLDPNTQECLALEPGLDDIMENSRDYNRRLWAWEGWRAEVGKQLRPLYEEYVVLENEMARANNYEDYGDYWRGDYEVTGAGDYDYSRDQLMKDVERTFAEIKPLYEQLHAYVRAKLMNTYPSYISPTGCLPAHLLGDMWGRFWTNLYSLTVPFEHKPSIDVTEKMKNQSWDAERIFKEAEKFFVSIGLPYMTQGFWNNSMLTEPGDGRKVVCHPTAWDLGKGDFRIKMCTKVTMDDFLTAHHEMGHIQYDMAYATQPYLLRNGANEGFHEAVGEIMSLSAATPHYLKALGLLAPDFYEDNETEINFLLKQALTIVGTLPFTYMLEKWRWMVFKGEIPKQQWMEKWWEMKREIVGVVEPLPHDETYCDPACLFHVAEDYSFIRYYTRTIYQFQFHEALCKTAKHEGALFKCDISNSTEAGQRLLQMLRLGKSEPWTLALENIVGIKTMDVKPLLNYFEPLFTWLKEQNRNSFVGWSTEWTPYSDQSIKVRISLKSALGENAYEWNDNEMYLFRSSVAYAMRKYFLEDRNETIPFGEENVWVSDKKPRISFKFFVTSPNNVSDIIPRTEVENAIRLCRDRINDAFQLDDNSLEFLGIQPTLRPPYEPP
# B7: horse ACE2 ectodomain fused with mFc (Fc fusion)
# chain: QSTTEDLAKTFLEKFNSEAEELSHQSSLASWSYNTNITDENVQKMNEAGARWSAFYEEQCKLAKTYPLEEIQNLTVKRQLQALQQSGSSVLSADKSKRLNEILNTMSTIYSTGKVCNPSNPQECLLLEPGLDAIMENSKDYNQRLWAWEGWRSEVGKQLRPLYEEYVVLKNEMARANNYEDYGDYWRGDYEAEGPSGYDYSRDQLIEDVERTFAEIKPLYEHLHAYVRAKLMDTYPSHINPTGCLPAHLLGDMWGRFWTNLYSLTVPFGQKPNIDVTDAMVDQSWDAKRIFEEAEKFFVSVGLPNMTQGFWENSMLTEPGDGRKVVCHPTAWDLGKGDFRIKMCTKVTMDDFLTAHHEMGHIQYDMAYAVQPYLLRNGANEGFHEAVGEIMSLSAATPNHLKAIGLLPPDFYEDSETEINFLLKQALTIVGTLPFTYMLEKWRWMVFKGEIPKEEWMKKWWEMKREIVGVVEPVPHDETYCDPAALFHVANDYSFIRYYTRTIYQFQFQEALCQTAKHEGPLHKCDISNSTEAGQKLLQMLSLGKSEPWTLALERIVGVKNMDVRPLLNYFEPLFTWLKDQNKNSFVGWSTNWSPYADQSIKVRISLKSALGEKSYEWNDNEMYLFQSSVAYAMRVYFLKAKNQTILFGEEDVWVSDLKPRISFNFFVTSPKNASDIIPRTDVEEAIRMSRSRINDAFRLDDNTLEFLGIQPTLGPPYQPPVT
# Biological target: SARS-CoV-2 PT-RBD (SARS-CoV-2 prototype, UniProt P0DTC2)
# Experiment: SPR
row,Binder,Kd [nM]
1,B1,424
2,B2,299
3,B3,74.8
4,B4,175
5,B5,59.2
6,B6,451
7,B7,64.4
